Drawing on patent US20190000984A1, this text covers attenuation of IL-4R activity against the control constructs (STAT6-luciferase) for one molecule.

This test addresses IL-4R (interleukin-4 receptor) (UniProt P24394). Briefly: cell-based or functional assay.

B1: anti-IL-4R:anti-CD63 conjugate (streptavidin-conjugated anti-IL-4R antibody combined 1:1 with biotinylated anti-CD63 antibody MEM-259) (protein, part only; not given: anti-CD63 antibody and constant regions, part only)
VH: EVQLVESGGGVVQPGRSLRLSCVASGFTFSDYGMHWVRQAPGKGLEWVAVIWYDGSIKYFRDSVKGRFTISRDNSKNTLYLQMNSLRVEDTAHYYCAKESSSWYFYHGLDVWGQGTMVTVSS
VL: EIVMTQSPLSLPVSPGEPASISCRSNQSLLHSNGNNYLAWYLQKPGQSPHLLIYLGSNRASGVPDRFSGSGSGTDFTLKISRVEAGDVGTYFCMQSLQAPPFTFGPGTKVEIKR
modifications: antibody conjugated to streptavidin (site not stated)
In the case of B1, the attenuation of IL-4R activity against the control constructs (STAT6-luciferase) is over 10%.
